Experiments:
[1] = molecular target: SARS-CoV-2 3CLpro R4A (SARS-CoV-2); test: SEC
[2] = molecular target: SARS-CoV-2 3CLpro R4Q (SARS-CoV-2); test: SEC
[3] = molecular target: SARS-CoV-2 3CLpro Q299N (SARS-CoV-2); test: SEC
[4] = molecular target: SARS-CoV-2 3CLpro E290Y (SARS-CoV-2); test: SEC
[5] = molecular target: SARS-CoV-2 3CLpro Q299E (SARS-CoV-2); test: SEC
[6] = molecular target: SARS-CoV-2 3CLpro E14D (SARS-CoV-2); test: SEC
[7] = molecular target: SARS-CoV-2 3CLpro S10A (SARS-CoV-2); test: SEC
[8] = molecular target: SARS-CoV-2 3CLpro E290D (SARS-CoV-2); test: SEC
[9] = molecular target: SARS-CoV-2 3CLpro S10C (SARS-CoV-2); test: SEC
[10] = molecular target: SARS-CoV-2 3CLpro E290A (SARS-CoV-2); test: SEC
[11] = molecular target: SARS-CoV-2 3CLpro E290Q (SARS-CoV-2); test: SEC
[12] = molecular target: SARS-CoV-2 3CLpro S139A (SARS-CoV-2); test: SEC
[13] = molecular target: SARS-CoV-2 3CLpro S1A (SARS-CoV-2); test: SEC
[14] = molecular target: SARS-CoV-2 3CLpro E14S (SARS-CoV-2); test: SEC
[15] = molecular target: SARS-CoV-2 3CLpro E14A (SARS-CoV-2); test: SEC
[16] = molecular target: SARS-CoV-2 3CLpro Q299A (SARS-CoV-2); test: SEC
[17] = molecular target: SARS-CoV-2 3CLpro K12A (SARS-CoV-2)
[18] = molecular target: SARS-CoV-2 3CLpro K12A (SARS-CoV-2); test: SEC
[19] = molecular target: SARS-CoV-2 3CLpro S10T (SARS-CoV-2); test: SEC
[20] = molecular target: SARS-CoV-2 3CLpro E14Q (SARS-CoV-2); test: SEC

SARS-CoV-2 3CLpro R4A (enzyme)
stoichiometry N [1]: 2

SARS-CoV-2 3CLpro R4Q (enzyme)
stoichiometry N [2]: 2

SARS-CoV-2 3CLpro Q299N (enzyme)
stoichiometry N [3]: 2

SARS-CoV-2 3CLpro E290Y (enzyme)
stoichiometry N [4]: 2

SARS-CoV-2 3CLpro Q299E (enzyme)
stoichiometry N [5]: 2

SARS-CoV-2 3CLpro E14D (enzyme)
stoichiometry N [6]: 2

SARS-CoV-2 3CLpro S10A (enzyme)
stoichiometry N [7]: 2

SARS-CoV-2 3CLpro E290D (enzyme)
stoichiometry N [8]: 2

SARS-CoV-2 3CLpro S10C (enzyme)
stoichiometry N [9]: 2

SARS-CoV-2 3CLpro E290A (enzyme)
stoichiometry N [10]: 2

SARS-CoV-2 3CLpro E290Q (enzyme)
stoichiometry N [11]: 2

SARS-CoV-2 3CLpro S139A (enzyme)
stoichiometry N [12]: 2

SARS-CoV-2 3CLpro S1A (enzyme)
stoichiometry N [13]: 2

SARS-CoV-2 3CLpro E14S (enzyme)
stoichiometry N [14]: 2

SARS-CoV-2 3CLpro E14A (enzyme)
stoichiometry N [15]: 2

SARS-CoV-2 3CLpro Q299A (enzyme)
stoichiometry N [16]: 2

SARS-CoV-2 3CLpro K12A (enzyme)
relative proteolytic activity on the FRET peptide substrate, percent of WT [17]: 60% | share of the monomer form [18]: 60% | stoichiometry N [18]: 2

SARS-CoV-2 3CLpro S10T (enzyme)
stoichiometry N [19]: 2

SARS-CoV-2 3CLpro E14Q (enzyme)
stoichiometry N [20]: 2

Reference: PMC9091064
